Reference: PMC7815789, “Degradation of complex arabinoxylans by human colonic Bacteroidetes” (Nature Communications, 2021)

Target: BACINT_01039-CE1 (carbohydrate esterase family 1, acetyl-xylan esterase) (Bacteroides intestinalis DSM 17393) (UniProt B3C975)
Test: crystal structure; seleno-methionine-labeled BACINT_01039-CE1, 20 mg/mL in 50 mM Tris, 150 mM NaCl pH 7.5; hanging drop; 10 mM ammonium sulfate, 80 mM sodium cacodylate pH 6.5, 21% PEG4000; two molecules in the asymmetric unit as a dimer

In the case of “BACINT_01039-CE1 (carbohydrate esterase family 1, acetyl-xylan esterase) (from UniProt B3C975 1-382) (enzyme)”, the stoichiometry N is reported as 2.
